According to patent US20090258001A1:

What was measured:
[1] = target: CD3 (CD3/TCR complex) on CD4+ and CD8+ T cells of patients (human) (UniProt P07766); test: flow cytometry of CD4+ T cells, anti-human IgG; Example 4 Cohort A, end of 0.5 mg infusion
[2] = target: CD3 (CD3/TCR complex) on CD4+ and CD8+ T cells of patients (human) (UniProt P07766); test: flow cytometry of CD4+ T cells, free CD3 sites by biotinylated TRX4; Example 4 Cohort B, 0.75 mg
[3] = target: CD3 (CD3/TCR complex) on CD4+ and CD8+ T cells of patients (human) (UniProt P07766); test: flow cytometry of CD4+ T cells, free CD3 sites by biotinylated TRX4; Example 4 Cohort A*, 0.15 mg
[4] = target: CD3 (CD3/TCR complex) on CD4+ and CD8+ T cells of patients (human) (UniProt P07766); test: flow cytometry of CD4+ T cells, free CD3 sites by biotinylated TRX4; Example 4 Cohort A*, 0.25 mg
[5] = target: CD3 (CD3/TCR complex) on CD4+ and CD8+ T cells of patients (human) (UniProt P07766); test: flow cytometry of CD4+ T cells, anti-human IgG; Example 4 Cohort B, about 24 hours after 0.75 mg infusion
[6] = target: CD3 (CD3/TCR complex) on CD4+ and CD8+ T cells of patients (human) (UniProt P07766); test: flow cytometry of CD4+ T cells, free CD3 sites by biotinylated TRX4; Example 3 Cohort 2, first 0.5 mg dose
[7] = target: CD3 (CD3/TCR complex) on CD4+ and CD8+ T cells of patients (human) (UniProt P07766); test: flow cytometry of CD4+ T cells, anti-human IgG; Example 4 Cohort A, end of 0.1 mg infusion
[8] = target: CD3 (CD3/TCR complex) on CD4+ and CD8+ T cells of patients (human) (UniProt P07766); test: flow cytometry of patients' CD4+ T cells, anti-human IgG; Example 3 Cohort 1 (0.1 mg x3), end of second infusion
[9] = target: CD3 (CD3/TCR complex) on CD4+ and CD8+ T cells of patients (human) (UniProt P07766); test: flow cytometry, free sites by biotinylated TRX4; Example 4, 4-dose cohorts, 24 hours after infusion
[10] = target: CD3 (CD3/TCR complex) on CD4+ and CD8+ T cells of patients (human) (UniProt P07766); test: flow cytometry of CD4+ T cells, free CD3 sites by biotinylated TRX4; Example 4 Cohort C, 0.2 mg
[11] = target: CD3 (CD3/TCR complex) on CD4+ and CD8+ T cells of patients (human) (UniProt P07766); test: flow cytometry of CD4+ T cells, anti-human IgG; Example 4 Cohort C, end of 1.0 mg infusion
[12] = target: CD3 (CD3/TCR complex) on CD4+ and CD8+ T cells of patients (human) (UniProt P07766); test: flow cytometry of CD4+ T cells, free CD3 sites by biotinylated TRX4; Example 3 Cohort 2, second 0.5 mg dose
[13] = target: CD3 (CD3/TCR complex) on CD4+ and CD8+ T cells of patients (human) (UniProt P07766); test: flow cytometry of CD4+ T cells, anti-human IgG; Example 4 Cohort C, end of 0.3 mg infusion
[14] = target: CD3 (CD3/TCR complex) on CD4+ and CD8+ T cells of patients (human) (UniProt P07766); test: flow cytometry of CD4+ T cells, free CD3 sites by biotinylated TRX4; Example 4 Cohort C, 0.1 mg
[15] = target: CD3 (CD3/TCR complex) on CD4+ and CD8+ T cells of patients (human) (UniProt P07766); test: flow cytometry of CD4+ T cells, free CD3 sites by biotinylated TRX4; Example 4 Cohort A, 0.2 mg
[16] = target: CD3 (CD3/TCR complex) on CD4+ and CD8+ T cells of patients (human) (UniProt P07766); test: flow cytometry of CD4+ T cells, anti-human IgG; Example 3 Cohort 3, end of 0.1 mg infusion
[17] = target: CD3 (CD3/TCR complex) on CD4+ and CD8+ T cells of patients (human) (UniProt P07766); test: flow cytometry of CD4+ T cells, free CD3 sites by biotinylated TRX4; Example 4 Cohort C, 1.0 mg
[18] = target: CD3 (CD3/TCR complex) on CD4+ and CD8+ T cells of patients (human) (UniProt P07766); test: flow cytometry of CD4+ T cells, free CD3 sites by biotinylated TRX4; Example 4 Cohort A, 0.5 mg
[19] = target: CD3 (CD3/TCR complex) on CD4+ and CD8+ T cells of patients (human) (UniProt P07766); test: flow cytometry of CD4+ T cells, free CD3 sites by biotinylated TRX4; Example 4 Cohort A*, 0.05 mg
[20] = target: CD3 (CD3/TCR complex) on CD4+ and CD8+ T cells of patients (human) (UniProt P07766); test: flow cytometry of CD4+ T cells, anti-human IgG; Example 4 Cohort A*, end of 0.1 mg infusion
[21] = target: CD3 (CD3/TCR complex) on CD4+ and CD8+ T cells of patients (human) (UniProt P07766); test: flow cytometry of CD4+ T cells, free CD3 sites by biotinylated TRX4; Example 4 Cohort B, Day 5
[22] = target: CD3 (CD3/TCR complex) on CD4+ and CD8+ T cells of patients (human) (UniProt P07766); test: flow cytometry of CD4+ T cells, anti-human IgG; Example 3 Cohort 3, end of 0.3 mg infusion
[23] = target: CD3 (CD3/TCR complex) on CD4+ and CD8+ T cells of patients (human) (UniProt P07766); test: flow cytometry of CD4+ T cells, anti-human IgG; Example 4 Cohort A, end of 0.3 mg infusion
[24] = target: CD3 (CD3/TCR complex) on CD4+ and CD8+ T cells of patients (human) (UniProt P07766); test: flow cytometry of CD4+ T cells, anti-human IgG; Example 3 Cohort 2 (0.5 mg x3), end of infusion
[25] = target: CD3 (CD3/TCR complex) on CD4+ and CD8+ T cells of patients (human) (UniProt P07766); test: flow cytometry of CD4+ T cells, free CD3 sites by biotinylated TRX4; Example 4 Cohort C, 2 hours after last infusion

Chain of UniProt P07766 (P07766 23-207, chain 1 of 3): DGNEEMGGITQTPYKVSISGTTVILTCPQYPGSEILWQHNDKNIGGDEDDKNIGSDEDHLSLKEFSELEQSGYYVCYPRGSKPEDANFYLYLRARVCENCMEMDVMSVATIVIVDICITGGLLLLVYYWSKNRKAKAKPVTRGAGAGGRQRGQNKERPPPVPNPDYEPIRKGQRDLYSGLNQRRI
Chain of UniProt P07766 (chain, as listed by the source, chain 2 of 3): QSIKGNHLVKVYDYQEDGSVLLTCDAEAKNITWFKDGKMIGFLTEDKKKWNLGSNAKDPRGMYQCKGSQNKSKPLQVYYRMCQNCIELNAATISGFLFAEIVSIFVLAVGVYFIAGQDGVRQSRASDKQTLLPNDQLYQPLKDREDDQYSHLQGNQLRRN
Chain of UniProt P07766 (chain, as listed by the source, chain 3 of 3): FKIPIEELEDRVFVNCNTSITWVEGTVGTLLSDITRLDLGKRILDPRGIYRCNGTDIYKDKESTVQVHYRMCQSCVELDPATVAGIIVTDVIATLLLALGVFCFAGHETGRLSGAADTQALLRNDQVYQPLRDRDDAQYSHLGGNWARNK

**Q.** How did the cell-bound TRX4 (MESF of anti-human IgG) [1] turn out when TRX4 antibody was run?
**A.** The cell-bound TRX4 (MESF of anti-human IgG) was 450000 MESF units.

**Q.** And the percent saturation of CD3 [2]?
**A.** Its percent saturation of CD3 is 95%.

**Q.** What about the percent saturation of CD3 [3] of the same substance?
**A.** The percent saturation of CD3 was 80%.

**Q.** And the percent saturation of CD3 [4]?
**A.** Its percent saturation of CD3 is 95%.

**Q.** And the cell-bound TRX4 (MESF of anti-human IgG) [5]?
**A.** Its cell-bound TRX4 (MESF of anti-human IgG) is 200000 MESF units.

**Q.** What about the percent saturation of CD3 [6] of the same substance?
**A.** Its percent saturation of CD3 is 90%.

**Q.** What about the cell-bound TRX4 (MESF of anti-human IgG) [7] of the same substance?
**A.** Its cell-bound TRX4 (MESF of anti-human IgG) is 200000 MESF units.

**Q.** And the cell-bound TRX4 (MESF of anti-human IgG) [8]?
**A.** Its cell-bound TRX4 (MESF of anti-human IgG) is 300000 MESF units.

**Q.** What about the percent saturation of CD3 [9] of the same substance?
**A.** The percent saturation of CD3 was 40%.

**Q.** What about the percent saturation of CD3 [10] of the same substance?
**A.** The percent saturation of CD3 was 95%.

**Q.** And the cell-bound TRX4 (MESF of anti-human IgG) [11]?
**A.** Its cell-bound TRX4 (MESF of anti-human IgG) is 750000 MESF units.

**Q.** And the percent saturation of CD3 [12]?
**A.** The percent saturation of CD3 was 80%.

**Q.** What about the cell-bound TRX4 (MESF of anti-human IgG) [13] of the same substance?
**A.** Its cell-bound TRX4 (MESF of anti-human IgG) is 600000 MESF units.

**Q.** And the percent saturation of CD3 [14]?
**A.** Its percent saturation of CD3 is 50%.

**Q.** What about the percent saturation of CD3 [15] of the same substance?
**A.** The percent saturation of CD3 was 70%.

**Q.** What about the cell-bound TRX4 (MESF of anti-human IgG) [16] of the same substance?
**A.** Its cell-bound TRX4 (MESF of anti-human IgG) is 100000 MESF units.

**Q.** And the percent saturation of CD3 [17]?
**A.** The percent saturation of CD3 was 97%.

**Q.** What about the percent saturation of CD3 [18] of the same substance?
**A.** The percent saturation of CD3 was 95%.

**Q.** And the percent saturation of CD3 [19]?
**A.** Its percent saturation of CD3 is 50%.

**Q.** What about the cell-bound TRX4 (MESF of anti-human IgG) [20] of the same substance?
**A.** The cell-bound TRX4 (MESF of anti-human IgG) was 700000 MESF units.

**Q.** And the percent saturation of CD3 [21]?
**A.** The percent saturation of CD3 was 40%.

**Q.** And the cell-bound TRX4 (MESF of anti-human IgG) [22]?
**A.** Its cell-bound TRX4 (MESF of anti-human IgG) is 300000 MESF units.

**Q.** What about the cell-bound TRX4 (MESF of anti-human IgG) [23] of the same substance?
**A.** The cell-bound TRX4 (MESF of anti-human IgG) was 600000 MESF units.

**Q.** What about the cell-bound TRX4 (MESF of anti-human IgG) [24] of the same substance?
**A.** Its cell-bound TRX4 (MESF of anti-human IgG) is 600000 MESF units.

**Q.** And the percent saturation of CD3 [25]?
**A.** The percent saturation of CD3 was 50%.
